Experimental findings from publication PMC7076015 (2020) are described below.

The test deals with MBP-KPNA7(P339A) (human, UniProt A9QM74 1-516, P339A).

What is called Kd is the concentration at which binding is half-saturated. A high value points to a looser complex. Consider RGGNVGGKRKADGYNQPDSKRRQTN (domain or fragment) [GST-GFP-hnRNP R bipartite NLS], for which the Kd is about 157 nM.
